Measurements as given in US20150038427A1.

Target: collagen
Assay: SPR (Biacore 2000), collagen immobilised on CM-3 chip, peptide as analyte, from on-off binding kinetics

B1: peptide … (SILY) (peptide)
peptide: RRANAALKAGELYKSILYGC
In the case of B1, the Kd is reported as 1200 nM.
